Measurements reported in the supplement of paper PMC10567573.
± gives the standard deviation.

Experiment: protein stability index of a GFP-peptide fusion (GPS, HEK-293T) (PSI 1-6); higher = more stable
[1] = treatment: DMSO, c terminus: a fixed tail appended
[2] = treatment: MLN4924 1 uM, 8 h, c terminus: a fixed tail appended
[3] = treatment: DMSO, c terminus: native
[4] = treatment: MLN4924 1 uM, 8 h, c terminus: native
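Also: 24-mer peptide tiles fused after GFP, lentivirally expressed, FACS-sorted into six equal bins by GFP/DsRed ratio, decoded by Illumina sequencing, PSI is the read-weighted mean bin number.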

Row | Sequence | protein stability index [1] | protein stability index [2] | protein stability index [3] | protein stability index [4]
1 | SSRQEKRPLCAQGDWHSPTLIREK [ELOA2] | 4.05 ± 0.24 | 4.23 ± 0.25 |  | 
2 | LLWATNEFSLVNVNLQRFGMNGQM [ETS2] | 2.9 ± 0.64 | 2.94 ± 0.49 |  | 
3 | ENSVEFEACLVAQCDALIDALNRR [TRIM9] | 2.88 ± 0.24 | 3.11 ± 0.37 |  | 
4 | IRARELQNIYKCIMLKNISQDERL [IQUB] | 2.25 ± 0.57 | 2.15 ± 0.54 |  | 
5 | LHAWEMKPYAVMVFQTEQKNLFRL [N4BP2L1] | 2.44 ± 0.61 | 2.41 ± 0.41 |  | 
6 | LPTITSELSGAPRCHTVPCAGSTA [PXN] | 3.86 ± 0.34 | 3.83 ± 0.27 |  | 
7 | EHRVAGIFPRLSFKDKSTYIESST [CLPTM1] | 3.16 ± 0.2 | 2.93 ± 0.29 |  | 
8 | SELSEHLRDPLTSLSHTELEAAEV [FCHSD1] | 5.22 ± 0.16 | 5.32 ± 0.13 |  | 
9 | FGIEIEVTDINDNAPKFQAENLDV [PCDHGA10] | 3.5 ± 0.56 | 3.98 ± 0.38 |  | 
10 | KDLFEEKIKKSPLTICYPEYAGSN [GNAI1] | 3.96 ± 0.36 | 4.09 ± 0.21 |  | 
11 | TFVFLASLLVLIEPVAAGSGIPEV [CLCN6] | 2.91 ± 0.58 | 2.71 ± 0.6 |  | 
12 | RWETSSWSECSRTCGEGYQFRVVR [ADAMTSL2] | 2.5 ± 0.84 | 2.21 ± 0.35 |  | 
13 | NRASLYSFPEPEAAQPMTKKRKVD [PRAME] | 4.54 ± 0.27 | 4.74 ± 0.14 |  | 
14 | GKWMKKFPESETKECPFRVNKVCG [SERPINB5] | 3.13 ± 0.32 | 3.47 ± 0.38 |  | 
15 | MLEMVPEKRASAGECLRHPWLNS [SRPK2] |  |  | 3.79 ± 0.34 | 3.85 ± 0.25
16 | FISQVTVLKYFSHYMEENLMDGGD [PLK2] | 2.46 ± 0.69 | 2.3 ± 0.49 |  | 
17 | PKNREYDRFYVINYLVRLSFHNLK [ZNF277] | 3.03 ± 1.2 | 2.29 ± 0.31 |  | 
18 | TSNSDDNMLKNIELFDKLSLRFNG [KCTD10] | 3.07 ± 0.3 | 3.18 ± 0.39 |  | 
19 | SQSSTYRGTYEQDGRFEKRQGNPS [ZNF396] | 4.74 ± 0.3 | 4.79 ± 0.31 |  | 
20 | YTFLYLVCISTKTQCSEEDQCKIN [FEM1B] | 2.65 ± 0.51 | 2.33 ± 0.2 |  | 
21 | MCQTKHSPWADGTPCGPAQACMGG [ADAMTS4] | 3.26 ± 0.43 | 3.44 ± 0.4 |  | 
22 | LSARDHQKLEREARICRLLKHPNI [CAMK2A] | 2.98 ± 0.069 | 3.01 ± 0.26 |  | 
23 | KQQWEIMHKHNETSQKIAARAFAQ [RSPH3] | 3.41 ± 0.2 | 3.38 ± 0.14 |  | 

Row | Sequence | protein stability index [1] | protein stability index [2] | protein stability index [3] | protein stability index [4]
24 | WNFDFVTETPLEGDFAWERVRGLG [CDKN1A] | 2.54 ± 0.42 | 2.8 ± 0.39 |  | 
25 | SNAERGTAEPFPRLHNLYSTPRCA [CBY2] | 3.95 ± 0.26 | 4.03 ± 0.14 |  | 
26 | SNNHHLMLEASEWATIEGLVELLQ [ZBED1] | 2.66 ± 0.14 | 2.71 ± 0.48 |  | 
27 | GAEDGDRAILYPCHGMSSQLVRYS [GALNT9] | 3.09 ± 0.17 | 3.16 ± 0.29 |  | 
28 | VWYVKKFGRYLEHLEVKFMNPYNA [FBXO39] | 2.66 ± 0.53 | 2.02 ± 0.45 |  | 
29 | RSSALWSEMLDITMKESLTTREIR [NET1] | 3.13 ± 0.23 | 3.23 ± 0.23 |  | 
30 | LNGTKVAEGHKASFCLEDTECEGD [LOXL2] | 5.41 ± 0.33 | 5.59 ± 0.12 |  | 
31 | VQHQRVHTGEKPYKCLECGKAFSQ [ZNF24] | 3.29 ± 0.55 | 3.66 ± 0.46 |  | 
32 | GTSHGAPPARGPRMSYGGSTCHAY [RBMY1A1] | 3.79 ± 0.22 | 3.77 ± 0.21 |  | 
33 | QGKLIKRQRLAKNDRGDHYHWKDL [EFHC1] | 3.36 ± 0.48 | 3.71 ± 0.31 |  | 
34 | HAPQISYTGPSSSGRFAGREWYYG [NCK2] | 2.52 ± 0.17 | 2.8 ± 0.4 |  | 
35 | DSFVVQYEDTNGQPQALLVDGDQS [TNXB] | 5 ± 0.27 | 4.83 ± 0.39 |  | 
36 | LTVQFVQGIFVEKYDPTIEDSYRK [RAP1B] | 2.17 ± 0.47 | 2.1 ± 0.57 |  | 
37 | KLSAKSLQTLRSFSHTLVSLSLFG [ZER1] | 3 ± 0.45 | 2.95 ± 0.43 |  | 
38 | PRGSETERLLTPNPGYGTQAGPSP [MCOLN1] | 4.41 ± 0.18 | 4.79 ± 0.28 |  | 
39 | RSRIEEQSQLICILKRRSDEALER [CCDC89] | 3.86 ± 0.12 | 3.76 ± 0.23 |  | 
40 | KLCKKGLAATTSMAYAKLMLTVMT [FANCE] | 2.33 ± 0.52 | 2.22 ± 0.43 |  | 
41 | SAHRALYRRHVLGIVLQGPALCFA [TMEM175] | 2.71 ± 0.62 | 2.58 ± 0.62 |  | 
42 | SHEDVCVFKCSVSRETECSRVGKQ [CARM1] | 4.11 ± 0.25 | 4.12 ± 0.31 |  | 
43 | SDMDRNKTILGNAHDNSEELERAR [ANKRD44] | 5.58 ± 0.16 | 5.57 ± 0.3 |  | 
44 | PDVTRVGLLQYGSTVKNEFSLKTF [MATN2] | 2.94 ± 0.23 | 2.85 ± 0.44 |  | 
45 | LPPEALTAPSGGQWGAEPEGSCYQ [RNF208] | 4.73 ± 0.42 | 4.73 ± 0.078 |  | 
46 | MCLKKNHEEEVSVLRCQLGDRLNV [KRT36] | 3.24 ± 0.29 | 3.02 ± 0.35 |  | 

Row | Sequence | protein stability index [1] | protein stability index [2] | protein stability index [3] | protein stability index [4]
47 | HSDHSSEMSLPEVQKDKYPEEFSL [SPATS1] | 5.3 ± 0.29 | 5.26 ± 0.29 |  | 
48 | SVPDVPKSMAWCENSICVGFKRDY [VPS39] | 2.91 ± 0.16 | 2.94 ± 0.25 |  | 
49 | STVGSAISRKLGDMRNSATFKSFE [TPD52L2] | 3.28 ± 0.2 | 3.28 ± 0.31 |  | 
50 | NPKLPNISLDVLQPSFPEILLESH [POMT2] | 3.52 ± 0.21 | 3.84 ± 0.34 |  | 
51 | HDFIEHILRKLPQQREKLSLIRKH [CCND2] | 2.3 ± 0.1 | 2.45 ± 0.25 |  | 
52 | QNIYKCIMLKNISQDERLDVLLTL [IQUB] | 2.5 ± 0.098 | 2.61 ± 0.51 |  | 
53 | PGPMDWVPRYTGVAPQDQCKLTCQ [ADAMTS4] | 3.77 ± 0.35 | 4.14 ± 0.36 |  | 
54 | NIMPYESTRVCLQPIRGVEGSDYI [PTPRD] | 2.91 ± 0.084 | 3.09 ± 0.18 |  | 
55 | YMDTKLLVARFLEQSSCTMTPDIH [FAM189A2] | 2.15 ± 0.45 | 2.18 ± 0.084 |  | 
56 | PLPEAIDPDVGVNSLQSYQLSPNK [PCDHGA10] | 5.35 ± 0.26 | 5.25 ± 0.24 |  | 
57 | LQHGDQLSICFTCFKAAFLDFKDL [TEX19] | 2.89 ± 0.52 | 2.51 ± 0.36 |  | 
58 | AGEGLVRSANGFPYREDEEGAFGE [MAP2] | 5.27 ± 0.18 | 5.24 ± 0.38 |  | 
59 | TNEKALEAVFGKYGRIVEVLLMKD [RBMX] | 1.97 ± 0.46 | 2.15 ± 0.29 |  | 
60 | KEFTLLLSAANVCLDPIIYFFLCQ [P2RY14] | 3.06 ± 0.56 | 2.97 ± 0.17 |  | 
61 | LMRAQRNYMVQTEDQYIFIHDALL [PTPRD] | 2.48 ± 0.46 | 2.41 ± 0.53 |  | 
62 | AEDAVYGRDGYDYDGYRLRVEFPR [SRSF1] | 3.37 ± 0.2 | 3.44 ± 0.37 |  | 
63 | AHSSDVLENVFSSLTDDKYDVAMN [GOLPH3L] | 4.74 ± 0.21 | 4.7 ± 0.3 |  | 
64 | PLIIAARNGHAKVVRLLLEHYRVQ [FEM1B] | 2.36 ± 0.36 | 2.39 ± 0.2 |  | 
65 | LEEAEGAVGYQPEYSKFCRMSYQD [NFE2L1] | 3.56 ± 0.4 | 3.05 ± 0.31 |  | 
66 | VSARSREGRGGRPGSTRPHRSACS [HAGHL] | 4.64 ± 0.2 | 4.69 ± 0.44 |  | 
67 | KDLNENLAATQGLAHMIAECKKLF [DLC1] | 2.39 ± 0.45 | 2.3 ± 0.34 |  | 
68 | NCPAHWLAQDWERCNTTCGRGVKK [ADAMTSL2] | 4.16 ± 0.19 | 4.42 ± 0.16 |  | 
69 | GFAERRIDKFGFIVGSQGAEGALE [TBC1D10A] | 3.93 ± 0.46 | 3.93 ± 0.19 |  | 

Row | Sequence | protein stability index [1] | protein stability index [2] | protein stability index [3] | protein stability index [4]
70 | FSGHFLCTSSWDKNLKIWNVHTGE [WDR88] | 2.71 ± 0.71 | 2.55 ± 0.15 |  | 
71 | LDVECHEKEKHVNQLQTKVAVLEQ [SASS6] | 5.03 ± 0.11 | 5.07 ± 0.21 |  | 
72 | YKCAECGKSFCHSTHLTVHRRIHT [ZNF8] | 3.9 ± 0.18 | 4.42 ± 0.16 |  | 
73 | PVSCCLGLLLESLVPFIVNDNITN [DYNC2LI1] | 2.57 ± 0.94 | 2.79 ± 0.58 |  | 
74 | DDSVMKATQQARKRNFISSKSKQP [C22orf31] | 4.87 ± 0.15 | 4.98 ± 0.2 |  | 
75 | QQIEEQRVQVQVVERAQQVAVQEQ [FLOT1] | 5.17 ± 0.41 | 5.03 ± 0.32 |  | 
76 | GQFVSLDGAGKTPTLGGGFHVNLG [BRF1] | 2.96 ± 0.37 | 3.06 ± 0.11 |  | 
77 | RRKQRYWPFSMDCTGTEAHISSCK [LOXL2] | 3.17 ± 0.49 | 3.52 ± 0.57 |  | 
78 | AVATASRLGPYVLLEPEEGGRAYQ [TRIB3] | 3.79 ± 0.37 | 3.71 ± 0.32 |  | 
79 | YCHPDSETDEDEEEGDEQQRLLNT [GMCL1] | 5.33 ± 0.37 | 5.2 ± 0.36 |  | 
80 | RIPGAWSCAWSLNIQANNCFSTGL [DCAF4] | 2.76 ± 0.94 | 2.69 ± 0.6 |  | 
81 | KQIKAGAYDFPSPEWDTVTPEAKD [CAMK2A] | 5.34 ± 0.26 | 5.27 ± 0.18 |  | 
82 | EPGKQERDVYLPAGKWRSYKGELF [MYORG] | 3.17 ± 0.087 | 3.2 ± 0.21 |  | 
83 | HMVKISGGPHISYPPLHEWVLREG [MAGEA3] | 2.29 ± 0.34 | 2.43 ± 0.35 |  | 
84 | QASEREAPSIEQRLQEVRESIRRA [FCHSD1] | 5.06 ± 0.35 | 5 ± 0.31 |  | 
85 | NKVAGHPLAQNERCLHMFLQDEII [SNX3] | 2.64 ± 0.2 | 2.7 ± 0.46 |  | 
86 | HFSQSLTVIHDFLFSLKESPEKFQ [FAF2] | 2.06 ± 0.23 | 2.44 ± 0.26 |  | 
87 | EVLAQPQGALAPPNCESDSKTGV [DNAAF3] |  |  | 5.34 ± 0.27 | 5.3 ± 0.39
88 | PLTFDKNENMAAKKKSVAMHTNYL [GNB5] | 3.33 ± 0.26 | 3.46 ± 0.26 |  | 
89 | LPVGGRLPGPTRPVLGRRAVGGRL [HAGHL] | 3.983 ± 0.03 | 4.24 ± 0.64 |  | 
